# Measurements: patent US20220298260A1 (MYTHIC THERAPEUTICS, published 2022)
# Changes are numbered by the printed parent chain.
# B1: mirvetuximab (antibody, V domains shown)
# VH: QVQLVQSGAEVVKPGASVKISCKASGYTFTGYFMNWVKQSPGQSLEWIGRIHPYDGDTFYNQKFQGKATLTVDKSSNTAHMELLSLTSEDFAVYYCTRYDGSRAMDYWGQGTTVTVSS
# VL: DIVLTQSPLSLAVSLGQPAIISCKASQSVSFAGTSLMHWYHQKPGQQPRLLIYRASNLEAGVPDRFSGSGSKTDFTLTISPVEAEDAATYYCQQSREYPYTFGGGTKLEIK
# notes: IgG expressed in Expi293; the entries are labelled heavy/light chain of the IgG but hold only the variable domains; also called MYT0596
# B2: MYT1154 (antibody, V domains shown)
# VH: B1 VH with A24H, Y27H, F59H
# VL: B1 VL
# notes: IgG
# B3: MYT0603 (antibody, V domains shown)
# VH: B1 VH with F29H
# VL: B1 VL
# notes: IgG
# B4: MYT2194 (antibody, V domains shown)
# VH: EVQLVESGGGVVQPGRSLRLSCSASGFTFSGYGLHWVRQAPGKGLEWVAMISSGGSYTYYADSVKGRFAISRDNAKNTLFLQMDSLRPEDTGVYFCARHGDDPAWFAYWGQGTPVTVSS
# VL: DIQLTQSPSSLSASVGDRVTITCSVSSSISSNNLHWYQQKPGKAPKPWIYGTSNLASGVPSRFSGSGSGTDYTFTISSLQPEDIATYYCQQWSSYPYMYTFGQGTKVEIK
# notes: IgG
# B5: MYT2221 (antibody, V domains shown)
# VH: B4 VH with H35S, F106H
# VL: B4 VL
# notes: IgG
# B6: MYT2215 (antibody, V domains shown)
# VH: B4 VH with H35S, G100H
# VL: B4 VL
# notes: IgG
# B7: MYT2219 (antibody, V domains shown)
# VH: B4 VH with H35S, A104H
# VL: B4 VL
# notes: IgG
# B8: MYT2195 (antibody, V domains shown)
# VH: B4 VH with H35S, M50H
# VL: B4 VL
# notes: IgG
# B9: MYT2196 (antibody, V domains shown)
# VH: B4 VH with H35S, I51H
# VL: B4 VL
# notes: IgG
# B10: MYT2217 (antibody, V domains shown)
# VH: B4 VH with H35S, D102H
# VL: B4 VL
# notes: IgG
# B11: MYT4501 (antibody, V domains shown)
# VH: EVQLVESGGGLVQPGGSLRLSCAASGFNIRTQSIHWVRQAPGKGLEWIGDIFPIDGITDYADSVKGRFTISADTSKNTAYLQMNSLRAEDTAVYYCARGSWSWPSGMDYYLDYWGQGTLVTVSS
# VL: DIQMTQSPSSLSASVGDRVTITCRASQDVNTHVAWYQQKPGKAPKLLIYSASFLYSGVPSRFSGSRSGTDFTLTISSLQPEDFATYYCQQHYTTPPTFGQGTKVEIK
# notes: IgG
# B12: MYT4503 (antibody, V domains shown)
# VH: B11 VH
# VL: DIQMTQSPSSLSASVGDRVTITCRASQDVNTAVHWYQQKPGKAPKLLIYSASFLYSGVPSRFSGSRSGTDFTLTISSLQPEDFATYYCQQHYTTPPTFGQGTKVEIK
# notes: IgG
# Target: T1, FOLR1 on NIH:OVCAR-3 cells (human, UniProt P15328 25-233)
# T1 construct: Endogenous FOLR1 of NIH:OVCAR-3 (FOLR1+) cells; also called cell surface FOLR1
# Test: flow cytometry on NIH:OVCAR-3 cells, Alexa Fluor 488 anti-human IgG
# Method: Binding affinity of selected anti-FOLR1 pH engineered antibody variants from Examples 9 and 11 were measured on NIH:OVCAR-3 cells. 100,000 cells per well were resuspended in […] FC buffer in a 96 well deep well plate. Mirvetuximab and pH engineered antibody variants were serially diluted at a 1:3 dilution. 100 µL of diluted antibody was added to each well with final concentration ranging from ˜100 nM to 0.024 pM and incubated for 2 hours at 4° C. Post incubation, the cells were spun at 2000 rpm for 2 min and supernatant was discarded. Cells were washed twice with 500 μL of ice-cold FC buffer and resuspended with 100 μL of FC buffer. The cells were then transferred from the deep well plate to 96 well round bottom plate, spun at 2000 rpm for 2 min and incubated with 100 μL of 10 μg/mL Alexa Fluor 488 conjugated goat anti-human IgG secondary antibody (ThermoFisher Scientific, A11013) for 30 min. Post incubation, cells were washed with FC buffer and resuspended in 100 μL, of FC buffer to read on a BD Accuri C6 flow cytometer. […] MYT0603 and MYT1154 show high affinity binding to cell surface FOLR1 on NIH:OVCAR-3 cells in the pM-nM range confirming that variants created through pH engineering can retain functionally appropriate affinities as compared to their corresponding starting ABPCs (e.g., mirvetuximab).
# T1 sequence (P15328 25-233): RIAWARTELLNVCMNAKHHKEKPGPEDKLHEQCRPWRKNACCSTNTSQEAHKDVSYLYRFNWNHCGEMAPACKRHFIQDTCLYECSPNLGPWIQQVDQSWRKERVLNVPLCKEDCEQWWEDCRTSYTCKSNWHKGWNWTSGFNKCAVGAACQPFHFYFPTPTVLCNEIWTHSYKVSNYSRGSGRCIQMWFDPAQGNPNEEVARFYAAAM
row,IC50 [nM],Binder
1,0.25,B1
2,0.396,B2
3,0.65,B3

# Target: T2, FOLR1 (R&D Systems, Cat #5646-FR) (human, UniProt P15328 25-233)
# T2 construct: Bought soluble protein; also called Folate Receptor 1
# Test: BLI, IgG on anti-human Fc sensor
# T2 sequence (P15328 25-233 limits assumed): as the sequence (P15328 25-233) above
row,binding result,Binder
1,no binding (tested: 50 nM),B4
2,no binding (tested: 50 nM),B5
3,no binding (tested: 50 nM),B6
4,no binding (tested: 50 nM),B7
5,no binding (tested: 50 nM),B8
6,no binding (tested: 50 nM),B9
7,no binding (tested: 50 nM),B10
8,no binding (tested: 50 nM),B11
9,no binding (tested: 50 nM),B12
